Patent US20250129140A1, “ANTI-HCMV ANTIBODIES AND ANTIGEN-BINDING FRAGMENTS THEREOF” (ICAHN SCHOOL OF MEDICINE AT MOUNT SINAI, priority 2021, published 2025)

What was measured:
HCMV = experiment: Virus neutralization, summary statements across cell types and strains; assay type: cell-based, Human cytomegalovirus; conditions: MRC5; TB40/E, AD169R, TR, Towne
Protocol: AD169R^BADrUL131, TB40E, TR, or Towne was pre-incubated with monoclonal antibodies (starting dilution of 100 μg/mL antibody) was diluted using 5 fold dilutions to achieve a final range of 50-0.016 μg/mL antibody after addition to 25 μL of media containing virus; final MOI 0.2) and incubated at 4° C. for 1 hr before the inoculum was added to the appropriate cell types (ARPE-19, HTR-svNeo, MRC5, or NHDF cells at 10,000 cells per well) for 2 hrs at 37° C., 5% CO2. Following infection, the inoculum was removed and replaced with 100 μL complete DMEM/F-12 media before an overnight incubation at 37° C., 5% CO2.
Cells were fixed using 4% paraformaldehyde (PFA) for 20 minutes at room temp. Cells were then permeabilized using 0.3% Triton X-100 (Thermo Fisher, #HFH10) in PBS and stained with an affinity-purified, polyclonal rabbit anti-IE1-1/2 (0.7 ng/ml) primary and an anti-rabbit Alexa Fluor 647 (1:1000) secondary. To quantify total cells per well, Hoechst (Molecular Probes, #H3570) was diluted 1:100,000 in PBS and incubated with cells for 20 minutes at room temp. Virus neutralization was quantified using a Celigo cytometer (Nexelcom Bioscience). Percent infection was calculated using ((#IE1-1+)/(#Hoechst+))*100 events per well and normalized to the percent infection when an irrelevant, non-neutralizing, or no antibody was used.
The student's unpaired, two tailed t tests were performed using the GraphPad Prism software (La Jolla, CA). An asterisk identifies statistical significance of P<0.05 or less.

[1] = tested on: recombinant HCMV pentamer (strain VR1814) consisting of gH, gL, UL128, UL130 and UL131A; experiment: Biolayer interferometry (Octet RED) KD determination; assay type: binding, Human cytomegalovirus; conditions: for kon: association 3 minutes; for kdis: dissociation 3 minutes in PBS
Protocol: Biolayer interferometry assays were performed using the Octet RED instrument (ForteBio, Inc.) to determine the association (kon) and dissociation (kdis) constants for each antibody. Purified monoclonal antibody was loaded onto the anti-mouse Fc IgG capture (AMC) biosensors using 5-fold dilutions (50-0.016 μg/mL in PBS) for 10 minutes. To determine the kon, the sensors were exposed to the recombinant HCMV pentamer (strain VR1814) consisting of gH, gL, UL128, UL130 and UL131A (Native Antigen, CMV-PENT-100) at a constant concentration of 100 μg/mL in PBS for 3 minutes. To determine the kdis, dissociation was measured over the course of 3 minutes while the sensors were in PBS buffer. KD values were calculated as a ratio of […].
To examine this further, 293 Expi cells were transfected with wildtype gH, wildtype gL, cotransfected with gH and gL (gH+gL), transfected with a single plasmid expressing both gH and gL (gH/gL) or co-transfected a variety of gH mutants and gL. Three days post transfection the cells were harvested and stained with unlabeled primary at 0.5 μg/mL using the antibodies indicated. Transfection efficiency was determined by measuring GFP expression on day 3 and binding was determined by percent Alexa Fluor 647 positive cells using a conjugated secondary. […] The binding profile for 1G9 is most similar to 10F8. Although the ratios of gH, gL and gO plasmid were 1:1:1 it is not certain how efficiently the trimer was assembled following transfection. […] To discern minute differences in antibody binding biolayer interferometry was used, immobilizing each of the purified monoclonal antibodies (50-0.016 μg/mL) onto anti-mouse IgG Fc capture (AMC) biosensors and exposing the sensors to recombinant pentamer (100 μg/mL).

gH/gL/gO trimer = molecular target: T1, gH/gL/gO trimer (Human cytomegalovirus, UniProt F5HCH8+Q6SW67, DEL177-177/E103D/E61Q/G77R); experiment: Binding to 293 Expi cells transfected with gH/gL/gO; conditions: 3 days post transfection
T1 construct: expressed in transfected cells; host or cells: 293 Expi (Expi293F) cells
Protocol: (§1) gH mutants were cloned into pcDNA 3.1 and co-transfected with gL (1:1 ratio, 6 μg plasmid total) with lipofectamine 2000 (Thermo Fisher, #11668019) into 293Expi cells (7.5×10^6). Cells were harvested 3 days post transfection and fixed before being incubated with α-gH antibodies (2 μg/mL) for 1 hr at RT. Cells were washed and then incubated in anti-mouse AF647 conjugated secondary (1:1000) in order to quantify binding. Transfection efficiency was determined using pMAX eGFP plasmid which was spiked in at 0.1 μg per well.
(§2) To examine this further, 293 Expi cells were transfected with wildtype gH, wildtype gL, cotransfected with gH and gL (gH+gL), transfected with a single plasmid expressing both gH and gL (gH/gL) or co-transfected a variety of gH mutants and gL. Three days post transfection the cells were harvested and stained with unlabeled primary at 0.5 μg/mL using the antibodies indicated. Transfection efficiency was determined by measuring GFP expression on day 3 and binding was determined by percent Alexa Fluor 647 positive cells using a conjugated secondary. […] The binding profile for 1G9 is most similar to 10F8. Although the ratios of gH, gL and gO plasmid were 1:1:1 it is not certain how efficiently the trimer was assembled following transfection. […]

gH monomer = molecular target: T2, gH monomer (Human cytomegalovirus, UniProt Q6SW67); experiment: Binding to 293 Expi cells transfected with gH alone; conditions: 3 days post transfection
T2 construct: expressed in transfected cells; host or cells: 293 Expi (Expi293F) cells
Protocol: as §1, §2

[2] = tested on: CMV TB40/E infected fibroblasts; experiment: SCID mouse gelfoam implant model of CMV proliferation; assay type: in vivo, SCID mice; conditions: fully human mAbs 4 or 18 mg/kg, ganciclovir 50 mg/kg; i.p. every three days; day ten; versus isotype control
Protocol: At day ten post-implantation, the cells were released from the gelfoam and DNA extracted from the cells was subjected to qPCR for the HCMV UL123 and β-actin genes. The relative CMV levels cells were determined from Ct values of qPCR analysis (in triplicate) from cells collected from three mice/treatment. Statistical tests were performed using ordinary one-way ANOVA with comparisons to isotype treated cells as a control and a Dunnett's post-test; **, p<0.01; ***, p<0.001; ****, p<0.0001.
The gelfoam was implanted subcutaneously in three mice per group. […] Treatments were administrated every three days for nine days. At day ten post-implant, the gelfoam was removed and cells were released from the gel foam by collagenase treatment. The total DNA was harvest from the cells, quantified, and subjected to qPCR for UL123 (CMV gene) and b-actin (housekeeping geen) using SYBR green to evaluate virus proliferation. The qPCR analysis was performed in triplicate from three animals to determine the Ct values for UL123 and b-actin to calculate the relative levels of CMV DNA from the gelfoam samples.

HCMV AD169R = experiment: Neutralization by fully human versus chimeric antibody versions; assay type: cell-based, Human cytomegalovirus; conditions: human IgG1 Fc versus mouse Fc
Protocol: Increasing concentrations of monoclonal antibodies (0.016-50 μg/mL) were incubated with AD169R (MOI 0.2) to assess neutralizing capacity. Percent infection was quantified using GFP expression at 18 hpi and normalized based on infection with virus alone (no antibody). CMV hyperimmune globulin (CytoGam®) was used as a control (trace on the upper right in FIGS. 8A, 8B, 8C, and 8D). FIG. 8A. […] FIG. 8B. Fully human (hu, comprising human variable and human constant regions) and chimeric (ms, comprising human variable and murine constant regions) versions of 9A12. FIG. 8C. Fully human (hu, comprising human variable and human constant regions) and chimeric (ms, comprising human variable and murine constant regions) versions of 13G1. FIG. 8D. Fully human (hu, comprising human variable and human constant regions) and chimeric (ms, comprising human variable and murine constant regions) versions of 14E1.
For this, the mouse Fc region of these mAbs was replaced with the human IgG1 Fc region.

HCMV gB (U373-gB cells) = experiment: Flow cytometry binding to U373-gB cells; set-up: species or system Human cytomegalovirus
HCMV BADrUL131 = experiment: Dissemination / focus forming unit (FFU) assay in ARPE-19 cells; assay type: cell-based, Human cytomegalovirus
Protocol: ARPE-19 or NHDF cells were plates at 50,000 cells per well in a 24 well and infected the following day. TB40/E (MOI 0.01) and AD169RBAD^rUL131 (MOI 0.1 & 0.01) was incubated with either 10 μg/mL or 0.5 μg/mL of antibody one hour prior to addition to cells. Following a 2 hr incubation at 37° C., 5% CO2 the inoculum was removed, and cells were overlaid with 1% low melt temperature sea agarose overlay. The overlay was allowed to solidify at room temp and then 500 μL of media was added before cells were put back into the incubator. At 7 days post infection, the cells were scanned using the brightfield and GFP filters and then placed back into the tissue culture incubator until the assay was stopped by fixation and immunostaining on day 10 or 14 as indicated.
Next, a focus forming unit (FFU) assay was optimized to examine the antibodies ability to block viral replication and dissemination over multiple infection cycles. […] Once the assay was terminated at Day 10 or 14, the cells were fixed and performed immunostaining to quantify total cells by Hoechst or infection using IE1-1 as readout for infection. […] The number of FFUs was quantified per well, using 10,000 μm^2 as a cutoff for plaque area. […] Images were taken on day 7 post infection and the relative number of plaques per well was calculated compared to wells that received an irrelevant control antibody M2E10. […]

B1: 9A12: anti-HCMV gH/gL monoclonal antibody, fusion 2; VH SEQ ID NO:59, VL SEQ ID NO:60; chimeric and fully human IgG1 versions (antibody, V domains shown)
VH: EVQLVESGGVLVQPGGSLRLSCAASGFTFSSHEMNWVRQAPGKGLEWISYISSTGSTIYDADSVKGRFTISRDNAKNSLYLQMNSLRAEDTAVYYCARSSGWYRNYSYGMDVWGQGTTVTVSS
VL: DIQMAQSPSSLSASVGDRVTITCRASQGIYNYLAWFQQKPGKAPKSLIYAASSLQTGVPSKFSGSGSGTDFTLTISNLQPEDFATYYCQQYNSFPRTFGQGTKVEIK
modifications: IgG1 constant regions
notes: anti-HCMV gH/gL monoclonal antibody, fusion 2; chimeric and fully human IgG1 versions
- neutralization of infection across all strains (HCMV): consistently neutralized infection
- kon [1]: 24800 M⁻¹ s⁻¹
- kdis [1]: 8.6e-05 s⁻¹
- binding to cells transfected with gH/gL/gO (gH/gL/gO trimer): bound
- binding to cells transfected with gH alone (gH monomer): bound
- CMV DNA levels (UL123 relative to β-actin, qPCR) [2]: limit CMV infection and proliferation
- IC50 / neutralizing capacity of fully human version compared to chimeric counterpart (HCMV AD169R): remained unchanged

B2: 13G1: anti-HCMV gH/gL monoclonal antibody, fusion 3; VH SEQ ID NO:38, VL SEQ ID NO:39; chimeric and fully human IgG1 versions (antibody, V domains shown)
VH: QVTLKESGPVLVKPTETLTLTCTVSGFSLYNARMGVTWIRQPPGKALEWLAHIFSNDERSYTSSLKNRLTISKDTSKSQVVLTMTNMDPVDTATYYCARIDYSNYIGNWFDPWGQGTLVTVSS
VL: DIQMTQSPSSLSASVGDRVTITCRASQSISNYLNWYQQKPGKAPKLLIYAASSLQGGVPSRFSGSGSGTDFTLTISSLQPEDFTTYYCQQSYSTPFTFGGGTKVEIK
modifications: IgG1 constant regions
notes: anti-HCMV gH/gL monoclonal antibody, fusion 3; chimeric and fully human IgG1 versions
- binding to the surface of U373-gB cells (HCMV gB (U373-gB cells); live cells, surface): bind non-specifically
- binding to U373-gB cells fixed and permeabilized (HCMV gB (U373-gB cells); permeabilized cells): does not significantly bind
- neutralization of infection across all strains (HCMV): consistently neutralized infection
- kon [1]: 12900 M⁻¹ s⁻¹
- kdis [1]: 6.51e-05 s⁻¹
- CMV DNA levels (UL123 relative to β-actin, qPCR) [2]: limit CMV infection and proliferation
- IC50 / neutralizing capacity of fully human version compared to chimeric counterpart (HCMV AD169R): improved IC50 values

B3: 14E1 (antibody, V domains shown)
VH: QVQLVQSGAEVKKPGASVKVSCKASGYTFTSYSISWVRQAPGQGLEWMGWINTYNGNTNYAQRVQARVTMTTDTSTSTAYMELRSLRSDDTAVYYCARDHGFFFDYWGQGNLVTVSS
VL: DIQLTQSPSFLSASVGDRVTITCWASQGISSYLAWYQQKPGKAPKLLIYAASTLQSGVPSRFSGSGSGTEFTLTISSLQPEDFATYYCQQLNSYPYTFGQGTQLEIK
- limiting viral dissemination at low concentration (HCMV BADrUL131): effective
- kon [1]: 24400 M⁻¹ s⁻¹
- kdis [1]: 0.00158 s⁻¹
- rank of binding constant within the panel ([1]; recombinant pentamer): weakest
- IC50 / neutralizing capacity of fully human version compared to chimeric counterpart (HCMV AD169R): improved IC50 values
